We go through three molecules from US20210343368A1, “Method for Engineering Synthetic Cis-Regulatory DNA” (Max-Delbrück-Centrum für Molekulare Medizin in der …, priority 2018, published 2021).

Series [1] relates to A549 cells. The series can be described thus: FACS profile of MGT #1 expression and cell morphology. Format: cell-based, human. On the procedure:
FACS analysis: Analysis was performed with FlowJo_V10.

For the next series, the system named is A549-MGT #1low cells. Description: Cytokine screening, microplate reader MGT #1 fluorescence. Format: cell-based, human. The settings on record: cytokine combined with GSK126. On the procedure:
Phenotypic screening: Tumor cells were propagated as described above until the screening. Then we seeded 15′000/50 μl/well in 384 well plates (Corning), in Gibco FluoroBrite DMEM medium supplemented with the appropriate growth factors. Cells were dispensed as 50 μl suspension into each well using the SPARK20M Injector system (50 μl injection volume; 100 μl/s injection speed). For non-adherent cells (e.g. GICs), cells were further centrifuge at 1500 rpm for 1 h30 min at 37° C. Bottom reading fluorescence was scanned using a SPARM 20M TECAN plate reader at 37° C. in a 5% CO2-95% air (3% for GICs) in a humidified cassette, with the following settings for mVenus: Monochromator, Ex 505 nm±20 nm, Em 535 nm±7.5 nm, manual gain:198, flashes: 35, Integration time:40 μs. In independent replicas, cell viability was measured with 0.02% AlamarBlue solution in FluoroBrite medium with the following settings: Fluorescence Top reading. Monochromator, Ex 565 nm±10 nm, Em 592 nm±10 nm, manual gain: 88, flashes: 30, Integration time:40 μs.
DMSO-soluble compounds such as GSK126, were robotically aliquoted using a D300e, whereas cytokines were robotically aliquoted to each well using an Andrew pipetting robot (AndrewAlliance), using the following concentrations:
To exploit Ezh2 inhibition and MGT #1 as a framework to clarify the signaling basis of EMT in NSCLC cells, we next performed a cytokine screening in GSK126- and vehicle-treated A549-MGT #1^low cells.

Series [2] concerns A549 cells. The series can be described thus: IncuCyte longitudinal MGT #1 fluorescence. Type of series: cell-based, human. The settings on record: GSK126 together with TGFB signaling. On the procedure: IncuCyte: IncuCyte automated longitudinal imaging was performed in 96 wells black walls plates (Greiner). 300,000 cells per plate were seeded to reach optimal confluence at the end of the experiment. GSK126 was aliquoted using a D300e, whereas TGFB1+2 were manually aliquoted to each well. Both were refreshed every second day. The last timepoint was independently verified using a plate reader (BMC Clariostar).
Ezh2 inhibition can support Kras-driven EMT in several mouse and human lung cancer cells^41. In this setting, we tested the use of sLCRs in reflecting cellular and molecular responses to biological and chemical stimuli.

Another series concerns MCF7 cells. Description: FACS of MGT #1 expression in breast cancer cells. Type of series: cell-based. As for the experimental part: (§1) The MCF7, MDA-231, A549 and H1944, cell lines (kindly provided by the Rene Bernards lab, NKI) were cultured in RPMI medium. All cell lines were supplemented with 10% FBS, and 5% penicillin and streptomycin at 37° C. in a 5% CO2-95% air incubator.
(§2) Tumor subtypes are genetically engraved in breast cancer cells^40. […] To confirm that MGT #1 expression reflects that actual breast cancer subtype identity, we FACS sorted and sub-cloned the top MCF7-MGT #1 and the mid MDA-231-MGT #1 expressing cells. Nevertheless, further propagation of the FACS-sorted populations reestablished pre-sorting homeostasis, with MCF7 expressing lower levels of MGT #1 than MDA-231.

For another series, the system named is MDA-231 cells. Description: FACS of MGT #1 expression in breast cancer cells. Format: cell-based. The following applies: short-term treatment. As for the experimental part:
as §1, §2

The subject of series [3] is MES-hGICs-MGT #1dim xenografts. Description: Orthotopic glioma xenograft, genetic tracing of MGT #1. Type of series: in vivo, NSG mice. As for the experimental part: Tissue dissection and Cell surface staining: Brain tumor dissection was previously described in detail^77. Briefly, the tissue was dissected with a scalpel, digested in Accutase/DNasel (947 μl Accutase, 50 μl DNase I Buffer, 3 μl DNase I) at 37° C. until needed. Filtered through a 120 μm cell strainer first and a 40 μm cell strainer before RBC lysis (NH4Cl, 155 mM; KHCO3, 10 mM; EDTA, pH 7.4, 0.1 mM). After washing in cold PBS, viability and cell count were assessed automatically with 0.4% Trypan Blue staining using a TECAN SPARK20M.
When surface markers were assessed, typically, 200.000 cells/antibody were used in 15 ml Falcons. Staining volume was 50 μl in RHB-A medium with primary antibody (e.g. CD133-APC; Miltenyi), on ice, in the dark, for 30′. […] Depending on whether cells were analyzed or sorted, data acquisition was performed on the BD LSRFortessa or cells were sorted using the BD Aria II or a Astrios Moflo. The appropriate laser-filter combinations were chosen depending on the fluorophores being analyzed. Typically, to remove dead cells, events were first gated on the basis of shape and granularity (FSC-SSC), and we used as viability dyes either AnnexinV or LIVE/DEAD Fixable Aqua Dead Cell Stain Kit (depending on the fluorophores being analyzed). […]
We intracranially transplanted MES-hGICs-MGT #1^dim cells into NSG mice and longitudinally monitored tumor formation. […]

In another series the test system is T98G cell line. Description: sLCR-mCherry reporter expression and reprogramming in a glioma cell line. Type of series: cell-based. The following applies: transient over-expression of SALL3, SOX2 and POU3F2. As for the experimental part: The T98G and U87MG (kindly provided by the van Tellingen lab, NKI) were propagated in EMEM medium. For the experiments in FIG. 13a, T98G were switched to RHB-A supplemented with EGF (20 ng ml-1), bFGF (20 ng ml-1), heparin (1 μg ml-1) and 5% penicillin and streptomycin and propagated first on standard tissue culture-treated plastic, then in ultra-low binding plastic (CORNING).
The Proneural GBM is thought to represent the common GBM ancestor subtype and also to reflect an oligodendrocytic cell-of-origin^26′^37. […] To test whether a PN sLCR would mirror the Proneural state, we decided to induce reprogramming of a FBS-driven conventional cell line into a PN-GICs using the master TFs underlying the PN identity^38. To this end, we transduced either MGT #1 or PNGT #2 into the T98G cell line, which is characterized by TP53 mutations (https://portals.broadinstitute.org/ccle), which are more likely to be associated with a PN phenotype^16. […] Of note, these set of experiments were conducted with a mCherry fluorescent protein carrying a nuclear localization signaling, thereby excluding that the fluorescent protein intensity (mCherry is brighter than mVenus), localization and stability (mVenus is transmembrane and stabilized) play a major role in the observed phenotypic transitions.

A further series relates to MES-hGICs and PN-hGICs. The series can be described thus: FACS of basal sLCR expression in hGICs. Format: cell-based, human. The following applies: growth-factor defined conditions in vitro. As for the experimental part: FACS sorting: Transduced hGICs were harvested into single cell suspensions and resuspended into cold RHB-A complete and filtered into FACS tubes. Sorting was conducted using BD FACSAria III or Fusion. The appropriate laser-filter combinations were chosen depending on the fluorophores being sorted for. Typically, to remove dead cells, events were first gated on the basis of shape and granularity (FSC-A vs. SSC-A) and doublets were excluded (FSC-A vs. FSC-H). Positive gates were established on PGK-driven and constitutively expressed H2B-CFP as sorting reporter, to sort for populations with low to medium intensity of sLCR-dependent fluorophore expression.
Next, we transduced Proneural (PNGT #1-2) and Mesenchymal (MGT #1-2) sLCRs lentiviral particles into spontaneously immortalized human neural progenitor cells that acquired high copy number of PDGFRA, c-Myc and CDK4. To recapitulate the common PN and MES GBM genetic backgrounds, we further engineered hGICs to be depleted of PTEN and either bear IDH1^R132 and TP53^R273H point mutations or be further depleted of TP53 and NF1, thereby generating PN-hGICs and MES-hGICs, respectively. These cells show DNA methylation profiles similar to GBM patients and acquire subtype-specific gene-expression in vivo and therefore represent two distinct GBM subtypes.

For `CC[C@H](C)n1cc(C)c2c(C(=O)NCc3c(C)cc(C)[nH]c3=O)cc(-c3ccc(N4CCNCC4)nc3)cc21` [GSK126], the “MGT #1 activation by flow cytometry” value in the series on A549 cells [1] (combination of TGFB signaling and GSK126) was “synergistically induce MGT #1 activation”. The cell morphology change entry with A549 cells [1] (single treatment) is “did not induce a cellular morphology changes”. In the series on A549 cells [1] (single treatment, early time point), the “MGT #1 expression by flow cytometry” value was “induces molecular transitions to a similar extent”. For the same molecule, the “MGT #1 expression, fluorescence output” value in the series on A549-MGT #1low cells is recorded as “modest additive effect”. For the same molecule, the “MGT #1 fluorescence, longitudinal measurement” value with A549 cells [2] is recorded as “cooperatively induced”.

B1: TGFB2: EMT inducer (protein, UniProt P61812 303-414, looked up)
Transforming growth factor …: ALDAAYCFRNVQDNCCLRPLYIDFKRDLGWKWIHEPKGYNANFCAGACPYLWSSDTQHSRVLSLYNTINPEASASPCCVSQDLEPLTILYYIGKTPKIEQLSNMIVKSCKCS
In the case of B1, the “change of basal MGT #1 fluorescence” value with MCF7 cells (short-term treatment) and in the series with MDA-231 cells was “did not strongly modify the basal MGT #1 fluorescence” each time.

B2: MGT #1: subtype-specific sLCR for mesenchymal glioblastoma (MES-GBM) (nucleic acid)
chain: ATATTTATTTTTAGGACCAGAAAGTTAAAGTGAATTGGATTTGATCCATTTTCTGAAAGGCTGGCAAGAATTCTTGACATTGCACAGGAATTTCCATGTCAGCATGTTCTCACATGTATGATCTAATTTAGAGATTATTTTGGGGGGCGGGGGTTGAGGAAATGGCATGACTCAGAGTTTAAAAGCCCCAAATCTTAGCTGTGCCTGTGTAGCTTTACCACATAACCCATTGATAACTTAGTTGTGCAACCATCACCACCATCTGTTTTCAGAACTCTTTTCATTTTGCGAAACTGAAACCCGTTAAGCACTGATTTCCCACTCTCCCTCCTCCCAGCCCATAGCAAACCACCATCCCACCAGCACTTTCATTTCGCAAATGGCAAAACTGAAGCCGATATTGTGGTTGTGACTTATCCCAAAGTAATATACACATAAACCTCTATGGATGAGGAAAAAGACAGAGGGAAACTAAAAATTCAAAAGAACAAATTTGACTCACAGATTTGCTGACTCATAGTTGTGACACTTCCTGGCTCAGGAAGTTGAATTTCATTAAGCCTTTGTGGTTTGGGGCTCTGCTGTGCTTTGACAGCTCTGATCTCCTCCCTTCCGGCTGGGCTGTCTGGGGCGCTCTAAAATGAGTGTTGATTTAATGCACTGCCTTCGCACCCGTGCTGGTGCGTCCCGGGGACAGGGGTGGCTGTGCGGTGCCGCGGCGGCCGGCGGGGCTCCTTCCCCAGCAGGGGTGGGGACGCTGAGTCACGGATCTGTCACCGCTTTGCACCTCTCCGAGCCCTCGGGGGCCAAAGCAAAAGCGAAAGCGA
modifications: sLCR
Consider B2, for which the “distribution of MGT #1 expressing cells in the tumor (immunohistochemical staining)” value in series [3] (intracranial transplant, n=10, humane end point) is “well confined within the invasive front”. Moreover, in series [3] (xenograft-derived tumor cells), the “endogenous mVenus fluorescence by flow cytometry, in vivo vs in vitro” value is on record as “vast majority of the tumor cells switched to a MGT #1^low or dark state”. Besides, in the series with T98G cell line, the “sLCR reporter expression upon master TFs” value is recorded as “neutral to MGT #1 expression”. In the series with MES-hGICs and PN-hGICs, the “basal sLCR expression” value is reported as “higher basal expression in MES-hGICs compared to PN-hGICs”. Further, the “basal MGT #1 expression” value in the series on MCF7 cells (after lentiviral transduction) was “lower MGT #1 expression compared to MDA-231 cells”.
